# In patent publication US20200109196A1 (MOGAM INSTITUTE FOR BIOMEDICAL RESEARCH, published 2020):
# T1: human CEACAM1 expressed on the cell surface (CEACAM1-Jurkat T cells); HEK293 cells transfected with human … (human, UniProt P13688 35-526)
# T1 construct: whole, on cells; also called CCM1
# T1 sequence (looked up): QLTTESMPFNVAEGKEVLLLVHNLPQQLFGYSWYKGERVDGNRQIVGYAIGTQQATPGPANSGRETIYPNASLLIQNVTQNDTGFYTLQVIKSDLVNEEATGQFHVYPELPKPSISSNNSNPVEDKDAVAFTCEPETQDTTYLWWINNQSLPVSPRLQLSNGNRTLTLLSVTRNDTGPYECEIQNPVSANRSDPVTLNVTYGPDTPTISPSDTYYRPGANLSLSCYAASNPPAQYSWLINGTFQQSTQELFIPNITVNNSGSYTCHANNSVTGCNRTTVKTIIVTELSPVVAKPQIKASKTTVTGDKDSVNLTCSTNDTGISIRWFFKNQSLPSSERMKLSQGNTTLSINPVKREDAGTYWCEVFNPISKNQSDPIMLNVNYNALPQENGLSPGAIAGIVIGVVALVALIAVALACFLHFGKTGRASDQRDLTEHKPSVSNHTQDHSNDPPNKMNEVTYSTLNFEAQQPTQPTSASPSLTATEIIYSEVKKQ
# T2: recombinant human CEACAM-1/CD66a protein (R&D systems; Cat. No. 2244-CM) (human, UniProt P13688 35-428)
# T2 construct: Bought protein; captured on anti-His (His1K) biosensors in the Octet assay, so it carries a His tag; also called HCCM1; recombinant CEACAM-1/CD66a protein
# T2 sequence (looked up): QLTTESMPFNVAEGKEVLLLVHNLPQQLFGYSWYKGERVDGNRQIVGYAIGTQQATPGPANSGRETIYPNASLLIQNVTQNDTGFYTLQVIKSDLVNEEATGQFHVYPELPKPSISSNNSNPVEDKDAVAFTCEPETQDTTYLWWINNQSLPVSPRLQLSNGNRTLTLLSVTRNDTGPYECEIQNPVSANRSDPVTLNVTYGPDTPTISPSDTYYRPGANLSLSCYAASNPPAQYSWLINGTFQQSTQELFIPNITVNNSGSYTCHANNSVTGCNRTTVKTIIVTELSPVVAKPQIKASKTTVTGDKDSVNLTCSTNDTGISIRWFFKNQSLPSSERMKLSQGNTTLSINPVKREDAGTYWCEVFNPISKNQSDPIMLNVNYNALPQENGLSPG
# T3: recombinant human CEACAM-1/CD66a protein Bulk (R&D systems; Cat. No. 2244-CM) (human, UniProt P13688 35-428)
# T3 construct: Same catalogue number as HCCM1, coated as a separate antigen ('bulk'); also called HCCM1 (bulk)
# T3 sequence (looked up): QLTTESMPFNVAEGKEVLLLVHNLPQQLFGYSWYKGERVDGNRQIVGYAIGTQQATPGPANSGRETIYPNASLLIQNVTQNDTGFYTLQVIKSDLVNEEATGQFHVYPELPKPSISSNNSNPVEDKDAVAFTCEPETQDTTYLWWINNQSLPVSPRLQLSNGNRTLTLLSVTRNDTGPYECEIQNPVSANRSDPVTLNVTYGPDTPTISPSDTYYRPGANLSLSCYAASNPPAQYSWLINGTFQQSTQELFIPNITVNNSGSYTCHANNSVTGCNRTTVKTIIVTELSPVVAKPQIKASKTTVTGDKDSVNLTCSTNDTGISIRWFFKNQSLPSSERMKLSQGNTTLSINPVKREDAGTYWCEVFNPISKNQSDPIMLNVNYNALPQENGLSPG
# Target: T1, human CEACAM1 expressed on the cell …
# Test: flow cytometry on CEACAM1-Jurkat T cells, antibody at 0.2 µg/ml
# Procedure: The CEACAM1-Jurkat T cells prepared above were treated with Fc block solution and incubated for 15 minutes. […] Herein, it is noted that the cell numbers were adjusted to 1×10⁵. The cells incubated with the antibodies were repeatedly subjected to the washing procedure of resuspending the cells in a FACS buffer and centrifuging the solution at 1,500 rpm.
# PE-conjugated goat anti-human F(ab)₂; (Sigma; Cat. No. P8047)) was diluted in the FACS buffer at a volume ratio of 1:200, and then added to the cells at 100 μl/well. Cells were resuspended well and incubated at 4° C. for 30 minutes in a dark condition.
# The cells incubated with the fixation buffer were repeatedly subjected to the washing procedure of resuspending the cells in a FACS buffer, centrifuging the solution at 1,500 rpm, and discarding the supernatant. The washed cells were resuspended in 200 μl of a FACS buffer, and the mean fluorescence intensities (MFIs) of the PE-labeled cells were monitored by a FACS LSR-Fortessa. All FACS analyses were conducted using the FlowJo software.
row,Binder,percent of maximal binding level
1,"4R9 (antibody, human IgG4 S228P, lambda, V domains shown, also called C25-derived clone 4R9) VH: EVQLLESGGGLVQPGGSLRLSCAASGFTFSNYAMSWVRQAPGKGLEWVSVISHGGGSIYYADSVKGRLTISRDNSKNTLYLQMNSLRAEDTAVYYCARDPTKGYAPTFDYWGQGTLVTVSS VL: QSVLTQPPSASGTPGQRVTISCSGSSSNIGNNYVSWYQQLPGTAPKLLIYADSRRPSGVPDRFSGSKSGTSASLAISGLRSEDEADYYCGAWDLSLNGYVFGGGTKLTVLG",80%
2,"4R9_H2-2 (antibody, human IgG4 S228P, lambda, V domains shown, also called C25-derived clone 4R9_H2-2) VH: EVQLLESGGGLVQPGGSLRLSCAASGFTFSNYAMSWVRQAPGKGLEWVSVISHGGGSIYYADSVKGRLTISRDNSKNTLYLQMNSLRAEDTAVYYCARDPTKGYAPLFDYWGQGTLVTVSS VL: QSVLTQPPSASGTPGQRVTISCSGSSSNIGNNYVSWYQQLPGTAPKLLIYADSRRPSGVPDRFSGSKSGTSASLAISGLRSEDEADYYCGAWDLSLNGYVFGGGTKLTVLG",80%
3,"4R26 (antibody, human IgG4 S228P, lambda, V domains shown, also called C25-derived clone 4R26) VH: EVQLLESGGGLVQPGGSLRLSCAASGFTFSNYAMSWVRQAPGKGLEWVSVISHGGGSIYYADSVKGRLTISRDNSKNTLYLQMNSLRAEDTAVYYCARDPTKGYAPTFDYWGQGTLVTVSS VL: QSVLTQPPSASGTPGQRVTISCSGSSSNIGNNYVSWYQQLPGTAPKLLIYADSKRLSGVPDRFSGSKSGTSASLAISGLRSEDEADYYCGAWDGRLNGYVFGGGTKLTVLG",80%

# Target: T2, recombinant human CEACAM-1/CD66a …
# Test: ELISA on coated recombinant CEACAM-1/CD66a (0.25 µg/ml), HRP anti-human IgG, OD450
# Procedure: Also, 2.5 μg of the recombinant CEACAM-1/CD66a protein (R&D systems; Cat. No. 2244-CM) was dissolved in 10 ml of PBS, and dispensed into 96-well plate (Nunc; Cat. No. 467679) at 100 μl/well and incubated overnight at 4° C. Thereafter, 300 μl of 1% (v/v) bovine serum albumin was added to each well, which was incubated at 37° C. for 1 hour.
# Each of the diluted antibodies was subjected to serial dilutions in PBS at a 1:1 volume ratio for 6 times. Each of the antibodies diluted to 7 concentrations was dispensed into each well at 100 μl/well, which was incubated at 37° C. for 1 hour. Then, each well was washed 3 times with a washing buffer prepared by diluting 10 μl of Tween 20 (Sigma-Aldrich; Cat. No. P9146) in 990 μl of PBS. Thereafter, 2 μl of human IgG conjugated with HRP was diluted in 10 ml of PBS, which was then dispensed into each well at 100 μl/well and incubated for 1 hour.
Binder,binding result,EC50 (read off the curve)
"C15 (antibody, human IgG4 S228P, lambda, V domains shown) VH: EVQLLESGGGLVQPGGSLRLSCAASGFTFSSYSMSWVRQAPGKGLEWVSSISPNGGNKYYADSVKGRFTISRDNSKNTLYLQMNSLGAEDTAVYYCAKDPYNIYQPLFDYWGQGTLVTVSS VL: QSVLTQPLSASGTPGQRVTISCSGSSSNIGNNYVNWYQQLPGTAPKLLIYANSNRPSGVPDRFSGSKSGTSASLAISGLRSEEEADYYCGTWDASLSAYVFGGGTKLTVLG",binds,–
"C25 (antibody, human IgG4 S228P, lambda, V domains shown, Made in ExpiHEK293F cells, protein A purified. huIgG4 is the isotype control and anti-huIgG4 the detection reagent; the isotype is not otherwise stated; also called anti-CEACAM1 antibody C25) VH: EVQLLESGGGLVQPGGSLRLSCAASGFTFSNYAMSWVRQAPGKGLEWVSVISHGGGSIYYADSVKGRLTISRDNSKNTLYLQMNSLRAEDTAVYYCARDPTKGYAPTFDYWGQGTLVTVSS VL: QSVLTQPPSASGTPGQRVTISCSGSSSNIGNNYVSWYQQLPGTAPKLLIYADSKRPSGVPDRFSGSKSGTSASLAISGLRSEDEADYYCGAWDASLNGYVFGGGTKLTVLG",–,~0.2 µg/mL
"C26 (antibody, human IgG4 S228P, lambda, V domains shown) VH: EVQLLESGGGLVQPGGSLRLSCAASGFTFSGYDMSWVRQAPGKGLEWVSWISYGGGSIYYADSVKGRFTISRDNSKNTLYLQMNSLRAEDTAVYYCAKDRLPQKAVRHSYANGMDVWGQGTLVTVSS VL: QSVLTQPPSASGTPGQRVTISCSGSSSNIGNNYVTWYQQLPGTAPKLLIYADSHRPSGVPDRFSGSKSGTSASLAISGLRSEDEADYYCGAWDYSLSGYVFGGGTKLTVLG",–,~0.3 µg/mL
"C17 (antibody, human IgG4 S228P, lambda, V domains shown) VH: EVQLLESGGGLVQPGGSLRLSCAASGFTFSDYSMSWVRQAPGKGLEWVSVIYPDDGNTYYADSVKGRFTISRDNSKNTLYLQMNSLRAEDTAVYYCARGSIWWLSLIPSSYNAMDVWGQGTLVAVSS VL: QSVLTQPPSASGTPGQRVTISCSGSSSNIGNNAVNWYQQLPGTAPKLLIYANSHRPSGVPDRFSGSKSGTSASLAISGLRSEDEADYYCGAWDASLNGYVFGGGTKLTVLG",binds,–

# Target: T3, recombinant human CEACAM-1/CD66a …
# Test: ELISA, coated antigen, anti-human IgG Fab-HRP
row,Binder,binding result
1,"C19 (antibody, human IgG4 S228P, lambda, V domains shown) VH: EVQLLESGGGLVQPGGSLRLSCAASGFTFSGYAMSWVRQAPGKGLEWVSGIYHDGGSTYYADSVKGRFTISRDNSKNTLYLQMNSLRAEDTAVYYCARVTVLCTTYGCSSYDGMDVWGQGTLVTVSS VL: not shown",binds
2,"C15 (antibody, human IgG4 S228P, lambda, V domains shown) VH: EVQLLESGGGLVQPGGSLRLSCAASGFTFSSYSMSWVRQAPGKGLEWVSSISPNGGNKYYADSVKGRFTISRDNSKNTLYLQMNSLGAEDTAVYYCAKDPYNIYQPLFDYWGQGTLVTVSS VL: QSVLTQPLSASGTPGQRVTISCSGSSSNIGNNYVNWYQQLPGTAPKLLIYANSNRPSGVPDRFSGSKSGTSASLAISGLRSEEEADYYCGTWDASLSAYVFGGGTKLTVLG",binds
3,"C18 (antibody, human IgG4 S228P, lambda, V domains shown) VH: EVQLLESGGGLVQPGGSLRLSCAASGFTFSNYDMSWVRQAPGKGLEWVSGISHSSGSKYYADSVKGRFTISRDNSKNTLYLQMNSLRAEDTAVYYCARDPLPCLIPKCSYYYAMDVWGQGTLVTVSS VL: QSVLTQPPSAPGTPGQRVTISCSGSSSNIGSNAVTWYQQLPGTAPKLLIYADSHRPSGVPDRFSGSKSGTSASLAISGLRSEDEADYYCGSWDDSLNAYVFGGGTKLTVLG",binds
4,"C22 (antibody, human IgG4 S228P, lambda, V domains shown) VH: EVQLLESGGGLVQPGGSLRLSCAASGFTFSDYDMSWVRQAPGKGLEWVSMIYSGSSSKYYADSVKGRFTISRDNSKNTLYLQMNSLRAEDTAVYYCAKAPLPFYFRPKSYYYAMDVWGQGTLVTVSS VL: QSVLTQPPSASGTPGQRVTISCSGSSSNIGSNNVTWYQQLPGTAPKLLIYANSHRPSGVPDRFSGSKSGTSASLAISGLRSEDEADYYCGSWDSSLNAYVFGGGTKLTVLG",binds
5,"C17 (antibody, human IgG4 S228P, lambda, V domains shown) VH: EVQLLESGGGLVQPGGSLRLSCAASGFTFSDYSMSWVRQAPGKGLEWVSVIYPDDGNTYYADSVKGRFTISRDNSKNTLYLQMNSLRAEDTAVYYCARGSIWWLSLIPSSYNAMDVWGQGTLVAVSS VL: QSVLTQPPSASGTPGQRVTISCSGSSSNIGNNAVNWYQQLPGTAPKLLIYANSHRPSGVPDRFSGSKSGTSASLAISGLRSEDEADYYCGAWDASLNGYVFGGGTKLTVLG",binds
